# Experimental data: WO2010029497A1 (dated 2010)
# Substitutions are numbered along the chain they refer to. Names may count otherwise.
# B1: 8L2-4D5 (CDR-grafted antibody, the template) (Fab, V domains shown)
# VH: QVQLQESGPGLVKPSETLSLTCTVSGFSLIGYDINWIRQPPGKGLEWIGMIWGDGTTDYNSALKSRVTISVDTSKNQFSLKLSSVTAADTAVYYCARGGYYYGTSYYFDYWGQGTLVTVS
# VL: DIQMTQSPSSLSASVGDRVTITCRASQDISNHLNWYQQKPGKAPKLLIYYISRFHSGVPSRFSGSGSGTDFTFTISSLQPEDIATYYCQQSKTLPYTFGQGTKLEIKR
# notes: expressed in E. coli with human kappa constant domain (GenBank CAA09181) and CH1 of human IgG2a (P01859)
# B2: 8L2-6D5 (CDR-grafted antibody with the framework mutation V71K) (Fab, V domains shown)
# VH: B1 VH with V71K
# VL: B1 VL
# notes: Fab with human CH1 (IgG2a) and kappa constant domains, his tag at the C terminus of the heavy chain; also called clone 8L2-6D5; Fab 8L2-6D5
# B3: Fab 3C (Fab, V domains shown)
# VH: B1 VH with I34L, M50I, L63V, V71K, Y101W, G103A
# VL: B1 VL with D28S, H32N, I51T, S91E, K92R
# notes: Fab from HEK293 cells
# B4: Fab E3 (Fab, V domains shown)
# VH: B1 VH with I34L, M50I, L63V, V71K, Y101W, G103A
# VL: B1 VL with D28S, H32N, I51T, S91E, K92H
# notes: Fab made in HEK293 cells, purified on Ni-NTA; also called 3E; Fab 3E
# B5: H19-L129 (Fab, V domains shown)
# VH: B1 VH with I34L, M50I, L63V, V71K
# VL: B1 VL with D28S, H32N, I51T
# notes: carries I34L, M50I, L63V (heavy) and D28S, H32N, I51T (light) with the grafted H3 and L3 CDRs, so it is E3 without Y101W, G103A, S91E, K92H; Fab with human CH1 (IgG2a) and kappa constant domains; also called Fab H19-L129; combined clone H19-L129
# Experiments:
# [1] = molecular target: NT3; assay: cell-based or functional assay
# [2] = molecular target: T1, human NGF (human, UniProt P01138 122-241); assay: SPR (BIAcore), 100 RU human NGF on CM5 chip, Fab injected 2 min, 1800 s dissociation
# [3] = molecular target: T1, human NGF; assay: cell-based or functional assay
# [4] = molecular target: T1, human NGF; assay: SPR (BIAcore 3000), human NGF immobilised on CM5 chip, Fab injected
# [5] = molecular target: T1, human NGF; assay: SPR (BIAcore 3000), human NGF immobilised on CM5 chip
# [6] = molecular target: T1, human NGF; assay: SPR (BIAcore) screening assay, human NGF on chip, Fab from small culture lysates
# [7] = molecular target: T1, human NGF; assay: summary sentence of the binding properties (BIAcore); its table is not reproduced in this copy
# [8] = molecular target: rat NGF (rat, UniProt P25427 122-241); assay: cell-based or functional assay
# [9] = molecular target: T1, human NGF; assay: SPR (BIAcore), human NGF immobilised on CM5 chip
# T1 sequence (P01138 122-241 limits assumed): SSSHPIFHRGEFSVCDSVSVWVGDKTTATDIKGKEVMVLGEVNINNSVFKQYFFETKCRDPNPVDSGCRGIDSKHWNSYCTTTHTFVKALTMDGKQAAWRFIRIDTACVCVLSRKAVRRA
# Sequence of rat NGF (P25427 122-241 limits assumed): as the sequence (P01138 122-241 limits assumed) above, with S3T, I6V, R9M, M37T, D60A, D65E, M92T, G94D, V117A, A120G counted along it
# Sequence of NT3 (P20783 139-257): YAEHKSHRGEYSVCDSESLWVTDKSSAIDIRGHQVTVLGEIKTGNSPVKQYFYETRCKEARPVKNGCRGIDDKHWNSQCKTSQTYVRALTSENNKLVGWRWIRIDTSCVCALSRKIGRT
molecule,measurement,setting,value
antibody E3 (full antibody),inhibition of survival of trigeminal neurons promoted by NT3,[1],> 200 nM
Fab fragment of mouse anti-NGF monoclonal antibody 911,Kd,[2],3.7 nM
same,koff,[2],8.4e-05 s⁻¹
same,kon,[2],22000 M⁻¹ s⁻¹
same,concentration that totally blocked NGF-elicited survival of trigeminal neurons,[3],20 nM
same,Kd,[4],10 nM
B1,Kd,[5],~38 nM
B2,koff,[6],0.001 s⁻¹
same,Kd,[4],~15 nM
B3,Kd,[2],~0.35 nM
B4,Kd,[2],~0.07 nM
same,koff,[2],~4.2e-05 s⁻¹
same,kon,[2],~600000 M⁻¹ s⁻¹
same,fold higher binding affinity than parent mouse antibody 911,[7],~50 fold
same,"IC50, inhibition of rat NGF-dependent survival of mouse E13.5 trigeminal neurons, 1.5 pM rat NGF",[8],~1.3 pM
same,"IC50, inhibition of rat NGF-dependent survival of mouse E13.5 trigeminal neurons, 15 pM rat NGF",[8],~31.6 pM
same,"IC50, inhibition of human NGF-dependent survival of mouse E13.5 trigeminal neurons, 1.5 pM human NGF",[3],~1.2 pM
same,"IC50, inhibition of human NGF-dependent survival of mouse E13.5 trigeminal neurons, 15 pM human NGF",[3],~21 pM
B5,Kd,[9],~1 nM
